{"source": "patent US20080064629A1", "about": "“Amphiregulin as a Protective Agent in Acute Hepatic Injury” (priority 2004, published 2008)", "molecules": {"B1": {"name": "amphiregulin (protein)", "chain": "SVRVEQVVKPPQNKTESENTSDKPKRKKKGGKNGKNRRNRKKKNPCNAEFQNFCIHGECKYIEHLEAVTCKCQQEYFGERCGEKSMKTHSMIDSSLSK", "notes": "polypeptide growth factor belonging to the EGF family, ligand of EGF receptor; human recombinant AR (Sigma) used"}}, "key": {"hepatocytes": {"system": "hepatocytes", "assay": "Apoptosis induced by other agents (TNFα plus galactosamine, okadaic acid, TGFβ) in hepatocytes", "assay_type": "cell-based", "conditions": "okadaic acid and TGFβ, data not shown"}, "cultured rat hepatocytes": {"system": "cultured rat hepatocytes", "assay": "EGF-R and proliferation signaling pathways (Western blot of phosphorylation) in cultured rat hepatocytes", "assay_type": "cell-based", "procedure": "Hepatocytes were isolated from male Wistar rats (150 g) and C57/BL6 mice (20 g) by perfusion with collagenase (Gibco-BRL, Paisley, UK) as described elsewhere [(18), (20)]. Cells (5×10^5 cells per well) were plated onto 6-well plates coated with collagen (type I collagen, Collaborative Biomedical, Bedford, Mass., USA). Cultures were maintained in MEM medium supplemented with 10% fetal calf serum (FCS), non-essential amino acids, glutamine 2 mM and antibiotics (all supplied by Gibco-BRL). After 2 h of incubation, the medium was removed and cells were again cultured in the same medium with 5% FCS. Where applicable, hepatocytes were treated with IL-1β or TNFα from Roche (Mannheim, Germany), HGF or forskolin from Calbiochem (San Diego, Calif., USA), IL6 from RD Systems (Wiesbaden-Nordenstadt, Germany), or PGE2 from Alexis QBiogene (Carlsbad, Calif., USA).\nHomogenates from liver samples and isolated hepatocytes were subjected to Western blot analysis as described elsewhere [(19, (20)]. Antibodies used were: affinity purified and biotinylated polyclonal antibody specifically targeted to murine AR (BAF989)(RD Systems); specific antibodies for the p17 subunit of active caspase-3 (9664S), phosphorylated Akt (Ser473) (9271S) and phosphorylated STAT3 (Tyr^705) (9131S) (Cell Signaling, Beverly, Mass., USA); ERK1/2 (06-182), phosphorylated EGF-R (Tyr^1173)(05-483) and STAT3 (06-596)(Upstate Biotechnology, Charlottesville, Va., USA). All other antibodies were from Santa Cruz Biotechnology (Santa Cruz, Calif., USA): BclxL (sc8392), Bcl2 (sc7382), EGF-R (sc-03), phosphorylated ERK1/2 (Tyr^204) (sc7383), Akt (sc5298), JNK (sc571), and phosphorylated JNK (Thr^183/Tyr^185) (sc6254)."}, "male C57/BL6 mice": {"system": "male C57/BL6 mice", "assay": "Acute liver damage induced by Jo2 antibody (Fas activation) in mice, treatment with AR", "assay_type": "in vivo, mouse", "procedure": "The experiments were carried out in compliance with the guidelines of the University of Navarra relating to the use of laboratory animals. Cirrhosis was induced with CCl4 in male Wistar rats as described elsewhere [(16) Castilla-Cortazar, I., Garcia, M., Muguerza, B., Quiroga, J., Perez, R., Santidrian, S., Prieto, J. 1997. Hepatoprotective effects of insulin-like growth factor I in rats with carbon tetrachloride-induced cirrhosis. Gastroenterology 113:1682-1691). Two-thirds PH or sham operations were performed on male Wistar rats (150 g) and male C57/BL6 mice (20 g) according to the method of Higgins and Andersen [(17) Higgins, G. M., Andersen, R. M. 1931. Experimental pathology of liver: restoration of liver of the white rat following partial surgical removal. Arch. Pathol. 12:186-202. (18) Latasa, M. U., Boukaba, A., García-Trevijano, E. R., Torres, L., Rodríguez, J. L., Caballería, J., Lu, S. C., López-Rodas, G., Franco, L., Mato, J. M., et al. 2001. Hepatocyte growth factor induces MAT2A expression and histone acetylation in rat hepatocytes. Role in liver regeneration. FASEB J. 10.1096/fj.00-0556fje. (19) Chen, L., Zeng, Y., Yang, H., Lee, T. D., French, S. W., Corrales, F. J., García-Trevijano, E. R., Avila, M. A., Mato, J. M., and Lu, S. C. 2004. Impaired liver regeneration in mice lacking methionine adenosyltransferase 1A. FASEB J. 18: 914-916]. Following sedation, in the sham operated animals the liver was exposed and then returned to the abdominal cavity. Acute liver damage was induced in male C57/BL6 mice (20 g) (n=3-5 per condition and time point) by means of a single intraperitoneal injection of CCl4 (1 μl/g body weight in olive oil) (Sigma, St. Louis, Mo., USA) or Jo2 monoclonal antibody (4 μg/mouse in saline solution) (BD PharMingen, San Diego, Calif., USA) [(5),(20) Martínez-Chantar, M. L., Corrales, F. J., Martínez-Cruz, A., García-Trevijano, E. R., Huang, Z. Z., Chen, L. X., Kanel, G., Avila, M. A., Mato, J. M., Lu, S. C. 2002. Spontaneous oxidative stress and liver tumors in mice lacking methionine adenosyltransferase 1A. FASEB J. 10.1096/fj.02-0078fje]. The controls received an equivalent volume of olive oil or saline solution. In the cases indicated, the mice received an intraperitoneal injection of human recombinant AR (9.5 μg/mouse) (Sigma) 6 and 0.5 h before and 3 h after Jo2 antibody, or 0.5 h before and 12 h after CCl4. At the indicated timepoints, mice were subjected to blood sampling and the sera were analysed for alanine and aspartate aminotransferase (ALT and AST) as described elsewhere [(16) and (21) Lasarte, J. J., Sarobe, P., Boya, P., Casares, N., Arribillaga, L., López-Díaz of Cerio, A., Gorraiz, M., Borrás-Cuesta, F., Prieto, J. 2003. A recombinant adenovirus encoding hepatitis C virus core and E1 proteins protects mice against cytokine-induced liver damage. Hepatology 37: 461-470]. Mice were sacrificed by cervical dislocation, and the livers were quickly frozen in liquid nitrogen, or fixed in formalin and embedded in paraffin for staining with hematoxylin and eosin (H&E).\nCaspase-3 activity in mouse hepatocytes and liver tissue lysates was assessed using the Caspase-3/CPP32 colorimetric assay kit (BioVision, Palo Alto, Calif., USA). Cells in culture (5×10^5 per condition) were lysed directly in the lysis buffer supplied with the kit after the corresponding treatments. Liver tissue was homogenized using a Dounce homogenizer in lysis buffer, followed by centrifugation at 15,000 rpm during 10 min. […]"}, "[1]": {"conditions": "rat hepatocytes, different times after addition of AR"}}}
{"molecule": "B1", "values": [{"measurement": "cytoprotective activity against apoptosis induced by other agents", "setting": "hepatocytes", "value": "cytoprotective activity was also seen"}, {"measurement": "phosphorylation of EGF-R on tyrosine residues", "setting": "cultured rat hepatocytes; isolated rat hepatocytes treated with AR", "value": "rapid and transient phosphorylation"}, {"measurement": "JNK phosphorylation", "setting": "cultured rat hepatocytes; [1]", "value": "observed JNK phosphorylation"}, {"measurement": "phosphorylation of Akt", "setting": "cultured rat hepatocytes; [1]", "value": "rapidly induces phosphorylation"}, {"measurement": "phosphorylation of ERK1/2", "setting": "cultured rat hepatocytes; [1]", "value": "rapidly induces phosphorylation"}, {"measurement": "serum transaminase (AST and ALT) elevation", "setting": "male C57/BL6 mice; 12 h after Jo2 (4 μg/mouse i.p.), AR 9.5 μg/mouse i.p. 6 and 0.5 h before and 3 h after Jo2", "value": "strongly suppressed"}, {"measurement": "liver damage by histopathological analysis", "setting": "male C57/BL6 mice; 12 h after Jo2, AR 9.5 μg/mouse i.p. 6 and 0.5 h before and 3 h after Jo2", "value": "almost completely avoided liver damage"}, {"measurement": "induction of caspase-3 activity in mouse liver extracts", "setting": "male C57/BL6 mice; 12 h after Jo2 injection, AR 9.5 μg/mouse i.p.", "value": "strongly inhibited"}, {"measurement": "levels of Bcl-xL protein in liver (Western blot)", "setting": "male C57/BL6 mice; AR and Jo2 versus Jo2 alone, 6 h after injection of Jo2, 12 h (figure legend)", "value": "greater"}, {"measurement": "rupture of caspase-3 (p17 subunit of active caspase-3, Western blot) in liver", "setting": "male C57/BL6 mice; liver extracts after Jo2 injection, AR 9.5 μg/mouse i.p.", "value": "avoided"}]}
